# Measured values from article PMC9482650, “Quantitative fragmentomics allow affinity mapping of interactomes” (Nature Communications, 2022).
# Changes are numbered by the printed parent chain.
# T1: LIN7A, O14910
# T1 sequence (O14910 103-200, limits assumed, looked up): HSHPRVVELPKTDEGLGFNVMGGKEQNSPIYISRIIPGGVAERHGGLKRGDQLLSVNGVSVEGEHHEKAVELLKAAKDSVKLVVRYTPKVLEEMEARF
# T2: TIAM2, Q8IVF5
# T2 sequence (Q8IVF5 885-986, limits assumed, looked up): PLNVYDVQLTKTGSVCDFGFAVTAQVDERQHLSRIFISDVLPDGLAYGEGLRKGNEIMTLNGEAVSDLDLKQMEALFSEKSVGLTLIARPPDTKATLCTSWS
# T3: DFNB31_1, Q9P202
# T3 sequence (Q9P202 135-233, limits assumed, looked up): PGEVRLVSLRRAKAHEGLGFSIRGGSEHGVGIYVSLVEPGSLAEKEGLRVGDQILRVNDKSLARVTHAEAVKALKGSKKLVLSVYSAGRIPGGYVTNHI
# T4: FRMPD1, Q5SYB0
# T4 sequence (Q5SYB0 52-145, limits assumed, looked up): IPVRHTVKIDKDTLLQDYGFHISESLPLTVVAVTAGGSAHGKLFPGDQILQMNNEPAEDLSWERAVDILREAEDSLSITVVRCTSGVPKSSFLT
# T5: RAPGEF6, Q8TEU7
# T5 sequence (Q8TEU7 525-625, limits assumed, looked up): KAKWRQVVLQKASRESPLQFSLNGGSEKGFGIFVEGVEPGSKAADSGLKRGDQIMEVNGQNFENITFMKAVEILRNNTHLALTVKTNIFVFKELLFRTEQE
# T6: MPDZ_10, O75970
# T6 sequence (O75970 1624-1722, limits assumed, looked up): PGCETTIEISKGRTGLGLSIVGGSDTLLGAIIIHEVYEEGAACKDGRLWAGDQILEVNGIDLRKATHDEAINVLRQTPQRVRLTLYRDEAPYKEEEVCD
# T7: LNX2_2, Q8N448
# T7 sequence (Q8N448 334-432, limits assumed, looked up): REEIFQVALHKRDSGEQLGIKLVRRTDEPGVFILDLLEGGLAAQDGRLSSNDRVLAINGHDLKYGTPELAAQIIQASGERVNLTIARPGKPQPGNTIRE
# T8: SYNJ2BP, P57105
# T8 sequence (P57105 8-110, limits assumed, looked up): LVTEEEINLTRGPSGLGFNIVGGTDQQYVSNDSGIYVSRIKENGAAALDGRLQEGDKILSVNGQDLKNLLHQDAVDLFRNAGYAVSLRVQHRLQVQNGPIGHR
# T9: PDZRN3_1, Q9UPQ7
# T9 sequence (Q9UPQ7 244-349, limits assumed, looked up): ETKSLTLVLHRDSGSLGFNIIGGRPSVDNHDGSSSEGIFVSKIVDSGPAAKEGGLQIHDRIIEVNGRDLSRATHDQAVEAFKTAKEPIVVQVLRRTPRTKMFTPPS
# T10: SIPA1L2, Q9P2F8
# T10 sequence (Q9P2F8 945-1036, limits assumed, looked up): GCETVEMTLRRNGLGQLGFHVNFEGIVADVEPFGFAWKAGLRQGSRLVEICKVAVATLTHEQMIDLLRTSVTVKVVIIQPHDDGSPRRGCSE
# T11: LIN7B, Q9HAP6
# T11 sequence (Q9HAP6 88-185, limits assumed, looked up): T1 sequence (O14910 103-200, limits assumed, looked up) with S2A, V20I, I35V, E42D, H65Q, K77Q, D78G, K89R
# T12: NHERF3_4, Q5T2W1
# T12 sequence (Q5T2W1 373-468, limits assumed, looked up): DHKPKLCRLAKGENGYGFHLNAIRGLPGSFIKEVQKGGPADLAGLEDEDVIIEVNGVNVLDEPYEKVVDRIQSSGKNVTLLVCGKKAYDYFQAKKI
# T13: PDZD7_3, Q9H5P4
# T13 sequence (Q9H5P4 857-944, limits assumed, looked up): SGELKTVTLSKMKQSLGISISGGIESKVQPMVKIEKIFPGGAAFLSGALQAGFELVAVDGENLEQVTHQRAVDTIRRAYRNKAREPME
# Target: T1, LIN7A, O14910
# Assay: holdup assay
# Set-up: key: below the threshold = too weak to quantify, mostly under pKd 3.1 to 4
# Conditions: plain residues with an end cap or a label only (N-terminal biotin on a linker: ado-ado)
row,Binder,pKd
1,"PKLMGVETVV [DUSP10, Q9Y6W6]",3.58
2,"EGGKKRESEA [APPL1, Q9UKG1]",below the threshold

# Target: LNX1_2, Q8TBB1
# Sequence (Q8TBB1 371-470): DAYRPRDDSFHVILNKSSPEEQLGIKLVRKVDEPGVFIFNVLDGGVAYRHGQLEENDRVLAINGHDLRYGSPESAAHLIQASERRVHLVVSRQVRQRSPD
# Assay: holdup assay
# Set-up: key: below the threshold = too weak to quantify, mostly under pKd 3.1 to 4
# Conditions: plain residues with an end cap or a label only (N-terminal biotin on a linker: ado-ado)
row,Binder,pKd
1,"PKLMGVETVV [DUSP10, Q9Y6W6]",3.96
2,"EGGKKRESEA [APPL1, Q9UKG1]",below the threshold

# Target: DLG1_2, Q12959
# Sequence (Q12959 314-412): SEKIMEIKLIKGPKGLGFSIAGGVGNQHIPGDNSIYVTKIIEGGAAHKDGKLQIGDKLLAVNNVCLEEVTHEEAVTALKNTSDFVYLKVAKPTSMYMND
# Assay: holdup assay
# Set-up: key: below the threshold = too weak to quantify, mostly under pKd 3.1 to 4
# Conditions: plain residues with an end cap or a label only (N-terminal biotin on a linker: ado-ado)
row,Binder,pKd
1,"PKLMGVETVV [DUSP10, Q9Y6W6]",5.61
2,"EGGKKRESEA [APPL1, Q9UKG1]",below the threshold

# Target: FRMPD3, Q5JV73
# Sequence (Q5JV73 12-100): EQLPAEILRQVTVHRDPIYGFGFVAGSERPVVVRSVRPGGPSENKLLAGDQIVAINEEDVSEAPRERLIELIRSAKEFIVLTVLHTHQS
# Assay: holdup assay
# Set-up: key: below the threshold = too weak to quantify, mostly under pKd 3.1 to 4
# Conditions: plain residues with an end cap or a label only (N-terminal biotin on a linker: ado-ado)
row,Binder,pKd
1,"PKLMGVETVV [DUSP10, Q9Y6W6]",below the threshold
2,"EGGKKRESEA [APPL1, Q9UKG1]",below the threshold

# Target: T2, TIAM2, Q8IVF5
# Assay: holdup assay
# Set-up: key: below the threshold = too weak to quantify, mostly under pKd 3.1 to 4
# Conditions: plain residues with an end cap or a label only (N-terminal biotin on a linker: ado-ado)
row,Binder,pKd
1,"PKLMGVETVV [DUSP10, Q9Y6W6]",below the threshold
2,"EGGKKRESEA [APPL1, Q9UKG1]",4.02

# Target: T3, DFNB31_1, Q9P202
# Assay: holdup assay
# Set-up: key: below the threshold = too weak to quantify, mostly under pKd 3.1 to 4
# Conditions: plain residues with an end cap or a label only (N-terminal biotin on a linker: ado-ado)
row,Binder,pKd
1,"PKLMGVETVV [DUSP10, Q9Y6W6]",4.09
2,"EGGKKRESEA [APPL1, Q9UKG1]",3.63

# Target: DLG4_2, P78352
# Sequence (P78352 155-259): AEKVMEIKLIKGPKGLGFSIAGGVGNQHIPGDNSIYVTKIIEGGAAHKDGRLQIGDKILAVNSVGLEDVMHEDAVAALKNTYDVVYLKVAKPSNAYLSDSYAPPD
# Assay: holdup assay
# Set-up: key: below the threshold = too weak to quantify, mostly under pKd 3.1 to 4
# Conditions: plain residues with an end cap or a label only (N-terminal biotin on a linker: ado-ado)
row,Binder,pKd
1,"PKLMGVETVV [DUSP10, Q9Y6W6]",5.47
2,"EGGKKRESEA [APPL1, Q9UKG1]",below the threshold

# Target: MAST2, Q6P0Q8
# Sequence (Q6P0Q8 1099-1202): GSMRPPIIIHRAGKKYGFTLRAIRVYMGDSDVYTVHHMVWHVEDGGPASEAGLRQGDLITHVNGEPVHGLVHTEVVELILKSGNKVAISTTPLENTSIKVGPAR
# Assay: holdup assay
# Set-up: key: below the threshold = too weak to quantify, mostly under pKd 3.1 to 4
# Conditions: plain residues with an end cap or a label only (N-terminal biotin on a linker: ado-ado)
row,Binder,pKd
1,"PKLMGVETVV [DUSP10, Q9Y6W6]",5.17
2,"EGGKKRESEA [APPL1, Q9UKG1]",below the threshold

# Target: T4, FRMPD1, Q5SYB0
# Assay: holdup assay
# Set-up: key: below the threshold = too weak to quantify, mostly under pKd 3.1 to 4
# Conditions: plain residues with an end cap or a label only (N-terminal biotin on a linker: ado-ado)
row,Binder,pKd
1,"PKLMGVETVV [DUSP10, Q9Y6W6]",below the threshold
2,"EGGKKRESEA [APPL1, Q9UKG1]",below the threshold

# Target: T5, RAPGEF6, Q8TEU7
# Assay: holdup assay
# Set-up: key: below the threshold = too weak to quantify, mostly under pKd 3.1 to 4
# Conditions: plain residues with an end cap or a label only (N-terminal biotin on a linker: ado-ado)
row,Binder,pKd
1,"PKLMGVETVV [DUSP10, Q9Y6W6]",below the threshold
2,"EGGKKRESEA [APPL1, Q9UKG1]",3.49

# Target: FRMPD2_2, Q68DX3
# Sequence (Q68DX3 944-1038): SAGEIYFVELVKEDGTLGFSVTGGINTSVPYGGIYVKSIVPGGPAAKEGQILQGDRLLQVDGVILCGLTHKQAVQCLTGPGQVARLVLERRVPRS
# Assay: holdup assay
# Set-up: key: below the threshold = too weak to quantify, mostly under pKd 3.1 to 4
# Conditions: plain residues with an end cap or a label only (N-terminal biotin on a linker: ado-ado)
row,Binder,pKd
1,"PKLMGVETVV [DUSP10, Q9Y6W6]",4.1
2,"EGGKKRESEA [APPL1, Q9UKG1]",below the threshold

# Target: PTPN3, P26045
# Sequence (P26045 505-587): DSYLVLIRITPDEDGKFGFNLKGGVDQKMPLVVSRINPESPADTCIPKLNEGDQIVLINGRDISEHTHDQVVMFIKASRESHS
# Assay: holdup assay
# Set-up: key: below the threshold = too weak to quantify, mostly under pKd 3.1 to 4
# Conditions: plain residues with an end cap or a label only (N-terminal biotin on a linker: ado-ado)
row,Binder,pKd
1,"PKLMGVETVV [DUSP10, Q9Y6W6]",4.66
2,"EGGKKRESEA [APPL1, Q9UKG1]",4.14

# Target: T6, MPDZ_10, O75970
# Assay: holdup assay
# Set-up: key: below the threshold = too weak to quantify, mostly under pKd 3.1 to 4
# Conditions: plain residues with an end cap or a label only (N-terminal biotin on a linker: ado-ado)
row,Binder,pKd
1,"PKLMGVETVV [DUSP10, Q9Y6W6]",below the threshold
2,"EGGKKRESEA [APPL1, Q9UKG1]",below the threshold

# Target: SCRIB_2, Q14160
# Sequence (Q14160 857-960): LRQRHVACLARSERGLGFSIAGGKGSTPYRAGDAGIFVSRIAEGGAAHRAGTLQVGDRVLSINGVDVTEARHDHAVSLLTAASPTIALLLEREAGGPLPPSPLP
# Assay: holdup assay
# Set-up: key: below the threshold = too weak to quantify, mostly under pKd 3.1 to 4
# Conditions: plain residues with an end cap or a label only (N-terminal biotin on a linker: ado-ado)
row,Binder,pKd
1,"PKLMGVETVV [DUSP10, Q9Y6W6]",3.98
2,"EGGKKRESEA [APPL1, Q9UKG1]",below the threshold

# Target: T7, LNX2_2, Q8N448
# Assay: holdup assay
# Set-up: key: below the threshold = too weak to quantify, mostly under pKd 3.1 to 4
# Conditions: plain residues with an end cap or a label only (N-terminal biotin on a linker: ado-ado)
row,Binder,pKd
1,"PKLMGVETVV [DUSP10, Q9Y6W6]",5.21
2,"EGGKKRESEA [APPL1, Q9UKG1]",below the threshold

# Target: T8, SYNJ2BP, P57105
# Assay: holdup assay
# Set-up: key: below the threshold = too weak to quantify, mostly under pKd 3.1 to 4
# Conditions: plain residues with an end cap or a label only (N-terminal biotin on a linker: ado-ado)
row,Binder,pKd
1,"PKLMGVETVV [DUSP10, Q9Y6W6]",4.69
2,"EGGKKRESEA [APPL1, Q9UKG1]",below the threshold

# Target: T9, PDZRN3_1, Q9UPQ7
# Assay: holdup assay
# Set-up: key: below the threshold = too weak to quantify, mostly under pKd 3.1 to 4
# Conditions: plain residues with an end cap or a label only (N-terminal biotin on a linker: ado-ado)
row,Binder,pKd
1,"PKLMGVETVV [DUSP10, Q9Y6W6]",3.69
2,"EGGKKRESEA [APPL1, Q9UKG1]",below the threshold

# Target: HTRA1, Q92743
# Sequence (Q92743 360-477): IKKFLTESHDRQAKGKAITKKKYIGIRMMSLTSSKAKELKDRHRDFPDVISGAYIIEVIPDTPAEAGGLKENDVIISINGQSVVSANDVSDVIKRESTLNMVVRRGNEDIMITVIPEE
# Assay: holdup assay
# Set-up: key: below the threshold = too weak to quantify, mostly under pKd 3.1 to 4
# Conditions: plain residues with an end cap or a label only (N-terminal biotin on a linker: ado-ado)
row,Binder,pKd
1,"PKLMGVETVV [DUSP10, Q9Y6W6]",4.6
2,"EGGKKRESEA [APPL1, Q9UKG1]",below the threshold

# Target: SNX27, Q96L92
# Assay: holdup assay
# Set-up: key: below the threshold = too weak to quantify, mostly under pKd 3.1 to 4
# Conditions: plain residues with an end cap or a label only (N-terminal biotin on a linker: ado-ado)
row,Binder,pKd
1,"PKLMGVETVV [DUSP10, Q9Y6W6]",5.23
2,"EGGKKRESEA [APPL1, Q9UKG1]",below the threshold

# Target: T10, SIPA1L2, Q9P2F8
# Assay: holdup assay
# Set-up: key: below the threshold = too weak to quantify, mostly under pKd 3.1 to 4
# Conditions: plain residues with an end cap or a label only (N-terminal biotin on a linker: ado-ado)
row,Binder,pKd
1,"PKLMGVETVV [DUSP10, Q9Y6W6]",below the threshold
2,"EGGKKRESEA [APPL1, Q9UKG1]",below the threshold

# Target: T11, LIN7B, Q9HAP6
# Assay: holdup assay
# Set-up: key: below the threshold = too weak to quantify, mostly under pKd 3.1 to 4
# Conditions: plain residues with an end cap or a label only (N-terminal biotin on a linker: ado-ado)
row,Binder,pKd
1,"PKLMGVETVV [DUSP10, Q9Y6W6]",below the threshold
2,"EGGKKRESEA [APPL1, Q9UKG1]",3.75

# Target: Inadl_3, Q8NI35
# Sequence (Q8NI35 359-469): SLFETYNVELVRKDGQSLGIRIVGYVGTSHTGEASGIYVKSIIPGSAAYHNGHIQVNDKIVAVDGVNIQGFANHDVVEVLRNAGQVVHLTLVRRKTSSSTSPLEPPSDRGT
# Assay: holdup assay
# Set-up: key: below the threshold = too weak to quantify, mostly under pKd 3.1 to 4
# Conditions: plain residues with an end cap or a label only (N-terminal biotin on a linker: ado-ado)
row,Binder,pKd
1,"PKLMGVETVV [DUSP10, Q9Y6W6]",4.51
2,"EGGKKRESEA [APPL1, Q9UKG1]",below the threshold

# Target: T12, NHERF3_4, Q5T2W1
# Assay: holdup assay
# Set-up: key: below the threshold = too weak to quantify, mostly under pKd 3.1 to 4
# Conditions: plain residues with an end cap or a label only (N-terminal biotin on a linker: ado-ado)
row,Binder,pKd
1,"PKLMGVETVV [DUSP10, Q9Y6W6]",below the threshold
2,"EGGKKRESEA [APPL1, Q9UKG1]",below the threshold

# Target: T13, PDZD7_3, Q9H5P4
# Assay: holdup assay
# Set-up: key: below the threshold = too weak to quantify, mostly under pKd 3.1 to 4
# Conditions: plain residues with an end cap or a label only (N-terminal biotin on a linker: ado-ado)
row,Binder,pKd
1,"PKLMGVETVV [DUSP10, Q9Y6W6]",5.19
2,"EGGKKRESEA [APPL1, Q9UKG1]",3.69
